The values that follow come from the supplement of paper PMC12042874.

± gives the uncertainty stated by the source.

This series is described as follows: amyloid nucleation score (Sup35N fusion, yeast selection) (log enrichment); library NNK2; higher = more nucleation; inactive = no reads after selection. In outline:
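Nucleation score: DiMSum log enrichment of output over input reads, centred on the mode score of non-aggregating sequences. Only sequences with at least 100 input reads were kept. Reads came from Illumina sequencing of plasmid inserts before and after 7 days of growth at 30°C without adenine and uracil, in psi-negative yeast expressing Sup35N fused to peptides of 20 random codons after 24 hours of induction with 100 μM copper sulfate.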
RSNDCDDLMDHVLWGYETYR: the amyloid nucleation score came out at 1.08 ± 0.66. As for RSNNTIFGKLFSGAILLCWV, the amyloid nucleation score was -1.2 ± 1. The result for RSRRRHRLDVGSWRWCCGES reads 4.08 ± 0.052; that for RSSSSTMDMM, 0.85 ± 0.74; that for RSTERCNYTCVNWVVL, 7.748 ± 0.048.

The substance RSWIFVSLIDCMEWILMNGS displayed an amyloid nucleation score of -0.451 ± 1. The result for RTDMALALQ reads 0.973 ± 0.34. The same measure for RTFAKVLKSSYQRNLPSTDV: 0.267 ± 0.24; for RTGGNILQYFYIVRAHSGWC: 1.35 ± 0.16. The result for RTHTKLGT reads 0.462 ± 0.42. In the case of RTLHSLWHNAT, the amyloid nucleation score amounted to 0.906 ± 0.35. The result for RTMFNLHADCERNLFWFGGW reads 5.13 ± 0.065. The same measure for RTNYWVIAWIYAFGS: -0.716 ± 1.1; for RTPTRILQAMLFYSRDHYSI: 0.218 ± 0.8. RTSTYLCMAVNKGVFVSNSV registered an amyloid nucleation score of -0.576 ± 0.64. The result for RTVTNEGTCFNGWLCYAREG reads 10.15 ± 0.063; that for RTYWGRKLNCVQF, 6.716 ± 0.04; that for RVCPLLYYGRDLLQLTMSSM, 0.314 ± 0.53. The same measure for RVDTYYQNL: 5.21 ± 0.059; for RVGQGSEACFRSWSIAGPPY: 2.8 ± 0.14; for RVGVIFRKYWSFRYFSCKEN: -0.59 ± 1.1. The result for RVHSCCTGKIGYKGVIVISV reads 0.051 ± 0.43; that for RVIARLLMLWFHPPCSSTKR, 6.203 ± 0.058; that for RVKYILMVQSLIFWNHILNV, “inactive”. In turn, RVLGWCSNSWMVEMSNECSW yielded an amyloid nucleation score of 1.13 ± 0.3. The substance RVLMHHYTLANLVSLVTNFF gave an amyloid nucleation score of 5.867 ± 0.043.

RVMGCVMGIRGWRIRIGNSG gave an amyloid nucleation score of 1.42 ± 0.47. RVMRCGCIDVQAILNVIVSQ gave an amyloid nucleation score of 9.316 ± 0.039. As for RVMRLGTLEDNWGDHGLSSR, the amyloid nucleation score was -0.583 ± 0.44.

On to RVNPCMTEGSLGLICSPYWY, for which the amyloid nucleation score was -0.511 ± 0.22. The same measure for RVRIYMTWFFTPIIWERWDG: “inactive”; for RVRWYSCLVFMISTGFAFL: -0.702 ± 0.76. RVSTEVFCSLLVGTHLGRGP displayed an amyloid nucleation score of 4.24 ± 0.13. Consider RVWSY, for which the amyloid nucleation score result is “inactive”. The same measure for RVYEVFGQKATGQMARRSVG: 1.78 ± 0.34. The same measure for RVYIFTCYGSSV: 7.997 ± 0.074; for RWAFTSFGSCLDKCYKYDYC: -0.913 ± 0.49. The same measure for RWCSVGNLVRSITR: 0.464 ± 0.57; for RWEMLPVKSHNNLRIRK: -0.293 ± 0.31. In turn, RWICWAMCSYLRRRKKP came in with an amyloid nucleation score of 0.527 ± 0.65. As for RWLDSERRTTRHLCSRGYST, the amyloid nucleation score is 1.24 ± 0.38. For the substance RWLVRTEKSS, the amyloid nucleation score is 2.03 ± 0.1. On to RWMRTSAGGCGSKVVWNLLG, for which the amyloid nucleation score is 0.682 ± 0.24.

In turn, RWSYLYSKEVH gave an amyloid nucleation score of -1.28 ± 0.64.

In turn, RWVRA had an amyloid nucleation score of 1.18 ± 0.21. Regarding RYCLTVSKGLRSG, the amyloid nucleation score is -0.722 ± 0.49. The substance RYCVDNW gave an amyloid nucleation score of 0.122 ± 0.41. The result for RYFINFSSLCHQLDILWRCV reads -1.03 ± 0.76; that for RYMGVMVYKAPPRRTWCGKV, -0.237 ± 0.41. The same measure for RYNILSSSATV: “inactive”; for RYNLKQCL: “inactive”; for RYPFFEMVRSTMQSMIENQ: 0.612 ± 0.3.

Consider RYRALPTMPLEMSVQGDLRV, for which the amyloid nucleation score was -0.319 ± 0.25. The same measure for RYRSFICALLRGFTDLACL: -1.53 ± 1.1; for RYRWDLSPRNTTTN: 3.22 ± 0.072. The same measure for RYSFD: -0.588 ± 1.1; for RYWKFA: 0.744 ± 0.74. As to SAACQCLDFWCSGLGQSQGL, the amyloid nucleation score came out at 6.59 ± 0.075. The result for SACDGPGTQSRIVGWGHSCV reads 1.33 ± 0.27; that for SAFDKASERLCSESVYKGKN, 1.7 ± 0.099; that for SAFSFAIVIYFRLCKVGLVD, -0.92 ± 1.1. The result for SAGGVSPFP reads -0.659 ± 0.63; that for SAKNMFDMYNCLDTLVVSWD, -0.095 ± 0.46. The result for SAKSNGVQ reads 1.16 ± 0.32. On to SALRSSEEFSAFCVE, for which the amyloid nucleation score was -0.084 ± 0.74. The same measure for SALRVSEGMLSSGEIAHLVY: -0.052 ± 0.23; for SANSRVGGLGNL: 0.717 ± 0.39; for SARRGCYWEAYCATCLKGWM: -1.03 ± 0.76. With SARRRINGNPCEEMNQRLAV, the amyloid nucleation score is 1.08 ± 0.53. The same measure for SASFRGG: -0.935 ± 0.48; for SAVIFAESTCV: -0.512 ± 0.79; for SAVSMMLYWGSLNRVDYCWS: 0.877 ± 0.32. SAVSPVSVADR gave an amyloid nucleation score of -0.656 ± 1.1.

SAYGVVSSWMR displayed an amyloid nucleation score of -0.266 ± 0.55.

In turn, SCDLYDTKSESFWLPSNMGS returned an amyloid nucleation score of 0.73 ± 0.44.

For the substance SCDVMIRYLSLGTLSYVRAV, the amyloid nucleation score was -0.032 ± 1.1. The same measure for SCIYRE: -0.097 ± 0.21.

The substance SCLLYCYSNSWFFIFNQR registered an amyloid nucleation score of -0.979 ± 1. The result for SCMCMEICINWNFRCIDGRG reads 6.66 ± 0.078. The same measure for SCNNLGDLWLSIILVKSET: 0.044 ± 1.1. The same measure for SCQLQDKLMLS: 0.999 ± 0.16; for SCRIFFE: -0.062 ± 0.65. As to SCRVLIGV, the amyloid nucleation score was determined as 0.878 ± 0.46. The result for SCSRLVFRRVVSGIISLCME reads -0.901 ± 0.79; that for SCSSLYT, 1.11 ± 0.43; that for SCSVTSAFRWTRCGLLRGIW, -0.048 ± 0.3. The result for SCSYRFSRSDDNCKTRFIAF reads -0.582 ± 1.1.

Consider SCVMGYKEVAFL, for which the amyloid nucleation score is -0.081 ± 0.34. The same measure for SDFIAGVKLSRNFDGRG: -0.097 ± 1.1; for SDFMTKYHHL: 3.33 ± 0.058.

Consider SDFVEKLLWFSY, for which the amyloid nucleation score was determined as 0.039 ± 0.77. Take SDGSGNGEWSEMQVLWTRSN: the amyloid nucleation score came out at 1.07 ± 0.33. The substance SDIFRK had an amyloid nucleation score of -1.27 ± 0.62. The result for SDLANTLEPELQAFVIQ reads -0.029 ± 0.61. The result for SDNRENFSRTFCFSVVGNWK reads “inactive”; that for SDNSM, -0.235 ± 0.32. The result for SDRGYSE reads 3.2 ± 0.14. In turn, SECCLVELINLTDGGMRGSA registered an amyloid nucleation score of 0.5 ± 0.42. The same measure for SECENAFVGVPPWRTKILWS: 2.19 ± 0.12; for SEFGSNEYRDGLGVYYGST: -0.542 ± 0.33; for SEFRHGSYYSGVTEVRFWVQ: 2.26 ± 0.11. The result for SEKGKEYSSVDMGQNGNTNM reads -0.829 ± 0.63. The same measure for SELLGLSIKAIYICCMSQME: -0.9 ± 0.61; for SESWSSCIMA: 1.33 ± 0.39. In turn, SESYVLYNIFGFSVKLDEHG yielded an amyloid nucleation score of -1 ± 1.

As for SETLFEYS, the amyloid nucleation score was -1.55 ± 0.55. Take SFASRYFSNKGGLHSDMCAS: the amyloid nucleation score entry was “inactive”. In turn, SFAYVMCLSG came in with an amyloid nucleation score of -0.635 ± 0.55. The same measure for SFCCFFRSSLVFNFLVYISG: 0.081 ± 1.1; for SFDVWAALNENLPHISYFDQ: -0.14 ± 1.1.

On to SFFNSWTHFGNCWFL, for which the amyloid nucleation score was found to be 3.85 ± 0.065. The same measure for SFFQSVMPYHLVYLGQILLN: -1.25 ± 0.34; for SFFWPPHLKRVLFLQLRTIC: 0.777 ± 0.44; for SFGTFVSGTALLGSMFCTTG: 0.285 ± 0.29. The result for SFGVGEFDVNYLMERRF reads -0.066 ± 0.4; that for SFGWDYVDPQLKNTCTHCRV, -0.795 ± 0.48; that for SFIPRLYLV, -0.016 ± 0.53. The same measure for SFKISDYDECSCFKFYMAPI: 7.08 ± 0.082; for SFKLGSHVSDKKIGMDLCFT: -0.361 ± 0.4. As for SFLFVFSRTGFDCLVDFCFE, the amyloid nucleation score is -1.76 ± 0.75.

Regarding SFNTLCLRKC, the amyloid nucleation score was -0.65 ± 0.37. Substance SFNWNC came in with an amyloid nucleation score of -1.15 ± 0.76. The result for SFRLQIRV reads -0.417 ± 0.23; that for SFRMKAALRRGNPNRAMDLT, 2.33 ± 0.098. The result for SFSVLLADGQYRCYLLDSVL reads -0.516 ± 0.48. For SFVSTVFMGRVFMQHAISTR, the amyloid nucleation score was -1.08 ± 0.55. The result for SFYWKMVW reads 0.512 ± 0.33; that for SGFLDLPVYPVYNHNRTKMI, 0.267 ± 0.57; that for SGFMLKWCKY, 0.874 ± 0.55. The result for SGFSVTNCGN reads -0.155 ± 0.26.

In turn, SGFTVEESWTLLCRIVSREG had an amyloid nucleation score of 1.22 ± 0.34.

Consider SGIGY, for which the amyloid nucleation score came out at 0.561 ± 0.62. The result for SGLRYFMFIISNSI reads 0.58 ± 0.22; that for SGNSENSTLVKNYFSTLSLS, -0.124 ± 0.5.

On to SGNVYFLQNRFSVAKQNYTL, for which the amyloid nucleation score was -0.448 ± 0.79. The result for SGPIEIRPCIPRKLVCSYRH reads 1.01 ± 0.53; that for SGPSFILSWS, -0.371 ± 0.63; that for SGRLNVSLLGVDSFYTELCA, -0.787 ± 0.54.

Take SGRPHDCPHWRFFRSIKGLI: the amyloid nucleation score is -0.676 ± 0.48. The result for SGRRLRGSKVSGWR reads -1.12 ± 0.76. The same measure for SGTGKVCVVLVHKTSVQRKC: 1.14 ± 0.3.

Regarding SGVIHSVFVWKCLITGGM, the amyloid nucleation score was -0.711 ± 0.38.
